Data: the supplement of paper PMC10065799, “High-throughput profiling of sequence recognition by tyrosine kinases and SH2 domains using bacterial peptide display” (eLife, 2023)
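Further: 11-residue human phosphosite peptides and single-mutation variants displayed on the E. coli surface, counted by deep sequencing, each peptide's frequency after selection divided by its frequency in the unselected input library; frequency after pTyr selection over input frequency; kinase dosed for 20-30% of maximal phosphorylation in three min.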

These sequences were tested against Fyn (UniProt P06241) (assay: phosphorylation enrichment, bacterial display (enrichment ratio); higher = better substrate or ligand; peptides without Tyr show the background).
Fyn, sequence (P06241 whole entry, looked up): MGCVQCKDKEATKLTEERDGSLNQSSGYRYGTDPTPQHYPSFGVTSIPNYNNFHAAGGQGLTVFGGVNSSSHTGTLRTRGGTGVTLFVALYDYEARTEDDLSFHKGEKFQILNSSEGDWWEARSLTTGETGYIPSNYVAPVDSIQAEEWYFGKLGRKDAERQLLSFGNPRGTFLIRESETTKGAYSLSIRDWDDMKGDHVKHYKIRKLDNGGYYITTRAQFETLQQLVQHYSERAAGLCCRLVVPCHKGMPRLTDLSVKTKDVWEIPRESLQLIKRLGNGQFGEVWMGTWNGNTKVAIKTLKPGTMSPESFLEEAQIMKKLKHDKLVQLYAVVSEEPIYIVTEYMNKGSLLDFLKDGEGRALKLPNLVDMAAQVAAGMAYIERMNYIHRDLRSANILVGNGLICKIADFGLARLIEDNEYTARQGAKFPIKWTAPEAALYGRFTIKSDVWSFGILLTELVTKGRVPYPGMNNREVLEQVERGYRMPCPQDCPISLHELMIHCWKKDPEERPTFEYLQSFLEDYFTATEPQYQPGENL
Sequence SEKVVYRRFTE [NCF1_Y41] has a phosphorylation enrichment of 0.432.
CTTIHFNFMCN [TP53_Y234_Y234F_YF] showed a phosphorylation enrichment of 0.484.
With IMITDYLLLFR [INSR_Y87] the phosphorylation enrichment was 0.467.
Work on MSSAGYRAAEG [COL6A3_Y543_T538M] yielded a phosphorylation enrichment of 0.387.
NKEAICSGFIR [SMCHD1_Y283_Y283C_YF] was tested, and the phosphorylation enrichment was 0.39.
CTTIRYNYMCN [TP53_Y234_H233R] showed a phosphorylation enrichment of 0.464.
Work on YRVDCYKNFVA [FHL1_Y213_C209R] yielded a phosphorylation enrichment of 0.504.
IFGASYVPFAA [RBM47_Y541_YF] gave a phosphorylation enrichment of 0.609.
VNYGAYINYFK [GLB1_Y488_D491Y] gave a phosphorylation enrichment of 1.22.
In the case of GRRNTYYASIA [ACADM_Y352], the phosphorylation enrichment is reported as 0.532.
RRIHSHRGHLW [VHL_Y112_Y112H] was tested, and the phosphorylation enrichment was 0.604.
SCRENYSFSEE [LEMD3_Y258_D260Y_YF] showed a phosphorylation enrichment of 0.501.
In the case of YADGVYQALEE [DUOX2_Y70], the phosphorylation enrichment is reported as 4.15.
LENSTYQFICV [CRB1_Y760_R764C_YF] gave a phosphorylation enrichment of 2.23.
With SSMIDYKPLEK [MYOC_Y479_N480K] the phosphorylation enrichment was 0.434.
Sequence QRALLYEDTLF [UNC13D_Y56_A59T_YF] has a phosphorylation enrichment of 1.49.
Work on GRDQPYSGTGD [TYRO3_Y828_A831T] yielded a phosphorylation enrichment of 0.549.
With ISDEAYVMAGV [ERBB2_Y772_L768S] the phosphorylation enrichment was 0.603.
Work on TSIGNYFKPWF [DHCR24_Y299_N294T_YF] yielded a phosphorylation enrichment of 0.428.
EARRVYGDIIF [ALDH5A1_Y175_H180Y_YF] was tested, and the phosphorylation enrichment was 0.635.
YKIYLYTLNDN [FN1_Y1975] was tested, and the phosphorylation enrichment was 0.479.
With EATKGYLDDPT [G6PD_Y322] the phosphorylation enrichment was 0.424.
ALAAPYVLFPG [CEFIP_Y1332_YF] was tested, and the phosphorylation enrichment was 0.739.
Sequence SNFRAYATEPQ [TNNI3_Y29_H34Q_YF] has a phosphorylation enrichment of 0.427.
Sequence ALADKYHGGGG [HBB_Y146_H144D] has a phosphorylation enrichment of 0.39.
ARAGEYGAEAL [HBA1_Y25_H21R] gave a phosphorylation enrichment of 0.655.
Sequence FVGGFYGGCNE [CTSC_Y352_YF] has a phosphorylation enrichment of 0.666.
Work on FAADFYKLLGN [ROR2_Y646_YF] yielded a phosphorylation enrichment of 0.366.
LLIMEYAKYGS [RET_Y806_V804M] gave a phosphorylation enrichment of 1.03.
MGRVNYGAFIN [GLB1_Y485_YF] was tested, and the phosphorylation enrichment was 0.408.
GADDSYYTARS [ZAP70_Y492] was tested, and the phosphorylation enrichment was 0.594.
Work on STTIHYNFMCN [TP53_Y234_C229S_YF] yielded a phosphorylation enrichment of 0.493.
MMVGAYSTLEG [ECPAS_Y470] gave a phosphorylation enrichment of 0.607.

These sequences were tested on Fer (mouse) in the same assay as above.
SEKVVYRRFTE [NCF1_Y41] gave a phosphorylation enrichment of 0.387.
For CTTIHFNFMCN [TP53_Y234_Y234F_YF], the phosphorylation enrichment was 0.569.
IMITDYLLLFR [INSR_Y87] was tested, and the phosphorylation enrichment was 0.513.
MSSAGYRAAEG [COL6A3_Y543_T538M] showed a phosphorylation enrichment of 0.379.
NKEAICSGFIR [SMCHD1_Y283_Y283C_YF] showed a phosphorylation enrichment of 0.467.
For CTTIRYNYMCN [TP53_Y234_H233R], the phosphorylation enrichment was 0.479.
Sequence YRVDCYKNFVA [FHL1_Y213_C209R] has a phosphorylation enrichment of 0.493.
Sequence IFGASYVPFAA [RBM47_Y541_YF] has a phosphorylation enrichment of 0.542.
In the case of VNYGAYINYFK [GLB1_Y488_D491Y], the phosphorylation enrichment is reported as 0.488.
GRRNTYYASIA [ACADM_Y352] showed a phosphorylation enrichment of 0.414.
RRIHSHRGHLW [VHL_Y112_Y112H] showed a phosphorylation enrichment of 0.689.
With SCRENYSFSEE [LEMD3_Y258_D260Y_YF] the phosphorylation enrichment was 0.53.
For YADGVYQALEE [DUOX2_Y70], the phosphorylation enrichment was 1.55.
Work on LENSTYQFICV [CRB1_Y760_R764C_YF] yielded a phosphorylation enrichment of 8.22.
SSMIDYKPLEK [MYOC_Y479_N480K] gave a phosphorylation enrichment of 0.322.
With QRALLYEDTLF [UNC13D_Y56_A59T_YF] the phosphorylation enrichment was 17.9.
Work on GRDQPYSGTGD [TYRO3_Y828_A831T] yielded a phosphorylation enrichment of 0.526.
ISDEAYVMAGV [ERBB2_Y772_L768S] showed a phosphorylation enrichment of 0.564.
TSIGNYFKPWF [DHCR24_Y299_N294T_YF] was tested, and the phosphorylation enrichment was 0.473.
EARRVYGDIIF [ALDH5A1_Y175_H180Y_YF] gave a phosphorylation enrichment of 0.493.
Work on YKIYLYTLNDN [FN1_Y1975] yielded a phosphorylation enrichment of 0.671.
Work on EATKGYLDDPT [G6PD_Y322] yielded a phosphorylation enrichment of 0.553.
Sequence ALAAPYVLFPG [CEFIP_Y1332_YF] has a phosphorylation enrichment of 0.543.
With SNFRAYATEPQ [TNNI3_Y29_H34Q_YF] the phosphorylation enrichment was 0.442.
ALADKYHGGGG [HBB_Y146_H144D] was tested, and the phosphorylation enrichment was 0.375.
ARAGEYGAEAL [HBA1_Y25_H21R] was tested, and the phosphorylation enrichment was 0.383.
FVGGFYGGCNE [CTSC_Y352_YF] gave a phosphorylation enrichment of 0.941.
FAADFYKLLGN [ROR2_Y646_YF] showed a phosphorylation enrichment of 0.366.
Work on LLIMEYAKYGS [RET_Y806_V804M] yielded a phosphorylation enrichment of 0.903.
Work on MGRVNYGAFIN [GLB1_Y485_YF] yielded a phosphorylation enrichment of 0.382.
For GADDSYYTARS [ZAP70_Y492], the phosphorylation enrichment was 0.482.
With STTIHYNFMCN [TP53_Y234_C229S_YF] the phosphorylation enrichment was 0.494.
With MMVGAYSTLEG [ECPAS_Y470] the phosphorylation enrichment was 0.743.

What follows are sequences tested against EPHB1 (UniProt P54762) in the same assay as above.
EPHB1, sequence (P54762 whole entry, looked up): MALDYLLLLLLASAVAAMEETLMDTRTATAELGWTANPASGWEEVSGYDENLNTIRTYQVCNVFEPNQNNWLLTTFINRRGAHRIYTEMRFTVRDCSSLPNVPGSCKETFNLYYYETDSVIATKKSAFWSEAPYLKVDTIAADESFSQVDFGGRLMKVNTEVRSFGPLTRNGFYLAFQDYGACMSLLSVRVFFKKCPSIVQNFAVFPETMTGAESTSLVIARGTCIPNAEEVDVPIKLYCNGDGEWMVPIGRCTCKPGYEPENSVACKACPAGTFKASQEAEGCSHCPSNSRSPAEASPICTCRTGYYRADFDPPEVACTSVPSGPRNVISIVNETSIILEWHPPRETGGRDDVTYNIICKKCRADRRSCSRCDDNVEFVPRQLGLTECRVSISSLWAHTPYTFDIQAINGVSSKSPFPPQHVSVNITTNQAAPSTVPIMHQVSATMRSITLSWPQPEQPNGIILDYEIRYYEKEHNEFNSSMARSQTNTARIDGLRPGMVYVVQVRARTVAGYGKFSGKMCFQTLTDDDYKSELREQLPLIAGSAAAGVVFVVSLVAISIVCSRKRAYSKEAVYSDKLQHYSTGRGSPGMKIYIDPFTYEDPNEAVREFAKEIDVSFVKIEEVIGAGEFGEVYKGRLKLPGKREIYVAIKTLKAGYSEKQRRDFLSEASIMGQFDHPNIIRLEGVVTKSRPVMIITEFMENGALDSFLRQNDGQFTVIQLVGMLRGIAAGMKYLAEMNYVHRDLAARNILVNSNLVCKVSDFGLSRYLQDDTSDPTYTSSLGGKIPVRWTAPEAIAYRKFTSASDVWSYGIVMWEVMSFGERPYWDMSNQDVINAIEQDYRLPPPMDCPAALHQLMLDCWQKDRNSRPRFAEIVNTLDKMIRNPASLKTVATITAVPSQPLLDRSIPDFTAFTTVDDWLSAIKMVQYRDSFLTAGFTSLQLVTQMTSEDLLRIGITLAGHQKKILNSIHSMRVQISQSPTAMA
SEKVVYRRFTE [NCF1_Y41] showed a phosphorylation enrichment of 0.39.
For CTTIHFNFMCN [TP53_Y234_Y234F_YF], the phosphorylation enrichment was 0.604.
IMITDYLLLFR [INSR_Y87] gave a phosphorylation enrichment of 0.678.
MSSAGYRAAEG [COL6A3_Y543_T538M] gave a phosphorylation enrichment of 0.389.
In the case of NKEAICSGFIR [SMCHD1_Y283_Y283C_YF], the phosphorylation enrichment is reported as 0.448.
CTTIRYNYMCN [TP53_Y234_H233R] was tested, and the phosphorylation enrichment was 0.461.
Sequence YRVDCYKNFVA [FHL1_Y213_C209R] has a phosphorylation enrichment of 0.559.
IFGASYVPFAA [RBM47_Y541_YF] showed a phosphorylation enrichment of 0.432.
Work on VNYGAYINYFK [GLB1_Y488_D491Y] yielded a phosphorylation enrichment of 1.9.
Sequence GRRNTYYASIA [ACADM_Y352] has a phosphorylation enrichment of 0.35.
In the case of RRIHSHRGHLW [VHL_Y112_Y112H], the phosphorylation enrichment is reported as 0.773.
SCRENYSFSEE [LEMD3_Y258_D260Y_YF] was tested, and the phosphorylation enrichment was 0.709.
YADGVYQALEE [DUOX2_Y70] was tested, and the phosphorylation enrichment was 2.83.
With LENSTYQFICV [CRB1_Y760_R764C_YF] the phosphorylation enrichment was 4.2.
SSMIDYKPLEK [MYOC_Y479_N480K] showed a phosphorylation enrichment of 0.357.
QRALLYEDTLF [UNC13D_Y56_A59T_YF] showed a phosphorylation enrichment of 15.4.
Work on GRDQPYSGTGD [TYRO3_Y828_A831T] yielded a phosphorylation enrichment of 0.385.
ISDEAYVMAGV [ERBB2_Y772_L768S] gave a phosphorylation enrichment of 0.495.
Work on TSIGNYFKPWF [DHCR24_Y299_N294T_YF] yielded a phosphorylation enrichment of 8.6.
EARRVYGDIIF [ALDH5A1_Y175_H180Y_YF] was tested, and the phosphorylation enrichment was 0.4.
With YKIYLYTLNDN [FN1_Y1975] the phosphorylation enrichment was 0.801.
EATKGYLDDPT [G6PD_Y322] showed a phosphorylation enrichment of 0.655.
ALAAPYVLFPG [CEFIP_Y1332_YF] was tested, and the phosphorylation enrichment was 0.581.
For SNFRAYATEPQ [TNNI3_Y29_H34Q_YF], the phosphorylation enrichment was 0.468.
Sequence ALADKYHGGGG [HBB_Y146_H144D] has a phosphorylation enrichment of 0.287.
With ARAGEYGAEAL [HBA1_Y25_H21R] the phosphorylation enrichment was 0.465.
Sequence FVGGFYGGCNE [CTSC_Y352_YF] has a phosphorylation enrichment of 0.696.
With FAADFYKLLGN [ROR2_Y646_YF] the phosphorylation enrichment was 0.474.
Sequence LLIMEYAKYGS [RET_Y806_V804M] has a phosphorylation enrichment of 1.4.
With MGRVNYGAFIN [GLB1_Y485_YF] the phosphorylation enrichment was 0.399.
Work on GADDSYYTARS [ZAP70_Y492] yielded a phosphorylation enrichment of 0.488.
For STTIHYNFMCN [TP53_Y234_C229S_YF], the phosphorylation enrichment was 0.628.
For MMVGAYSTLEG [ECPAS_Y470], the phosphorylation enrichment was 0.735.

Each sequence was assayed against Jak2 (UniProt O60674) in the same assay as above.
Jak2, sequence (O60674 whole entry, looked up): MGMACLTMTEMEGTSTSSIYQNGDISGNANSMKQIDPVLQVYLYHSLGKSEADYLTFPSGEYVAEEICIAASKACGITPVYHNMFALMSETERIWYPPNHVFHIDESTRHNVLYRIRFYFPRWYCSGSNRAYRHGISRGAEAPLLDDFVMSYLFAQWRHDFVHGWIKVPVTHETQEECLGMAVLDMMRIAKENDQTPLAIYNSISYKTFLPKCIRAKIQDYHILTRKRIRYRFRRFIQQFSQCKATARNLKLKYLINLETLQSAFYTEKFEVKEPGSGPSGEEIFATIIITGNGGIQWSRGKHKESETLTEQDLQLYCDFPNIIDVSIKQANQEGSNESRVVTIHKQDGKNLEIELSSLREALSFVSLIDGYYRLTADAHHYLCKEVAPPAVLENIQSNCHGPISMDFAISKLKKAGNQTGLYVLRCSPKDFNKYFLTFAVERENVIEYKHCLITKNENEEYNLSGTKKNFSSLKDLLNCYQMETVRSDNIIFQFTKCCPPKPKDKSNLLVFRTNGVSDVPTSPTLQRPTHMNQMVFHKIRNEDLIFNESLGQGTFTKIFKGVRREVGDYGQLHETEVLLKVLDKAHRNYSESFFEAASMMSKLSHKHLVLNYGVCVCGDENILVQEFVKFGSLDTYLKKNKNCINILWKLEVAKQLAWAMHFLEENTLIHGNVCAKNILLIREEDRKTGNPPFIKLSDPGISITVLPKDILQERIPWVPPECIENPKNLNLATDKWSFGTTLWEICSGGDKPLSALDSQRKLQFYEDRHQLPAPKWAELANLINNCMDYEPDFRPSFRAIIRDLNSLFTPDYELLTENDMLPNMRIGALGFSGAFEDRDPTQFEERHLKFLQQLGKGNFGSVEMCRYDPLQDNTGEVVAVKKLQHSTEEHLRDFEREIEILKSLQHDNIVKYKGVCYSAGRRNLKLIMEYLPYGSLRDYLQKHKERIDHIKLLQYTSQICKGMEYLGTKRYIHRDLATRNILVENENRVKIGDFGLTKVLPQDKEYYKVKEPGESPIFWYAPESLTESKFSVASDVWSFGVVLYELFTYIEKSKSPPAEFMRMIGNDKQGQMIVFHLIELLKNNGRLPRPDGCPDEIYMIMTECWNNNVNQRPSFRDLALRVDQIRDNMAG
For SEKVVYRRFTE [NCF1_Y41], the phosphorylation enrichment was 0.61.
For CTTIHFNFMCN [TP53_Y234_Y234F_YF], the phosphorylation enrichment was 1.33.
With IMITDYLLLFR [INSR_Y87] the phosphorylation enrichment was 1.55.
Sequence MSSAGYRAAEG [COL6A3_Y543_T538M] has a phosphorylation enrichment of 0.529.
In the case of NKEAICSGFIR [SMCHD1_Y283_Y283C_YF], the phosphorylation enrichment is reported as 0.802.
CTTIRYNYMCN [TP53_Y234_H233R] showed a phosphorylation enrichment of 0.674.
With YRVDCYKNFVA [FHL1_Y213_C209R] the phosphorylation enrichment was 0.837.
Sequence IFGASYVPFAA [RBM47_Y541_YF] has a phosphorylation enrichment of 1.27.
VNYGAYINYFK [GLB1_Y488_D491Y] was tested, and the phosphorylation enrichment was 1.7.
In the case of GRRNTYYASIA [ACADM_Y352], the phosphorylation enrichment is reported as 0.735.
RRIHSHRGHLW [VHL_Y112_Y112H] gave a phosphorylation enrichment of 0.659.
For SCRENYSFSEE [LEMD3_Y258_D260Y_YF], the phosphorylation enrichment was 0.988.
With YADGVYQALEE [DUOX2_Y70] the phosphorylation enrichment was 1.11.
For LENSTYQFICV [CRB1_Y760_R764C_YF], the phosphorylation enrichment was 1.37.
SSMIDYKPLEK [MYOC_Y479_N480K] gave a phosphorylation enrichment of 0.495.
QRALLYEDTLF [UNC13D_Y56_A59T_YF] showed a phosphorylation enrichment of 1.68.
In the case of GRDQPYSGTGD [TYRO3_Y828_A831T], the phosphorylation enrichment is reported as 0.713.
Work on ISDEAYVMAGV [ERBB2_Y772_L768S] yielded a phosphorylation enrichment of 0.656.
For TSIGNYFKPWF [DHCR24_Y299_N294T_YF], the phosphorylation enrichment was 7.94.
For EARRVYGDIIF [ALDH5A1_Y175_H180Y_YF], the phosphorylation enrichment was 0.719.
With YKIYLYTLNDN [FN1_Y1975] the phosphorylation enrichment was 1.4.
EATKGYLDDPT [G6PD_Y322] was tested, and the phosphorylation enrichment was 0.949.
With ALAAPYVLFPG [CEFIP_Y1332_YF] the phosphorylation enrichment was 1.21.
In the case of SNFRAYATEPQ [TNNI3_Y29_H34Q_YF], the phosphorylation enrichment is reported as 0.565.
In the case of ALADKYHGGGG [HBB_Y146_H144D], the phosphorylation enrichment is reported as 0.439.
ARAGEYGAEAL [HBA1_Y25_H21R] gave a phosphorylation enrichment of 0.697.
Work on FVGGFYGGCNE [CTSC_Y352_YF] yielded a phosphorylation enrichment of 1.27.
FAADFYKLLGN [ROR2_Y646_YF] showed a phosphorylation enrichment of 1.16.
In the case of LLIMEYAKYGS [RET_Y806_V804M], the phosphorylation enrichment is reported as 2.18.
MGRVNYGAFIN [GLB1_Y485_YF] gave a phosphorylation enrichment of 0.616.
GADDSYYTARS [ZAP70_Y492] was tested, and the phosphorylation enrichment was 1.
STTIHYNFMCN [TP53_Y234_C229S_YF] gave a phosphorylation enrichment of 0.998.
Sequence MMVGAYSTLEG [ECPAS_Y470] has a phosphorylation enrichment of 0.557.
